According to PMC7954794, “Protein context shapes the specificity of SH3 domain-mediated interactions in vivo” (Nature Communications, 2021):

Test system: PPIs identified as affected by the SH3 domain deletions
Test: Liquid DHFR-PCA low-throughput validation of PPIs affected by SH3 deletion (Fig. S1D-E)
Type: cell-based, Saccharomyces cerevisiae
Details: label = prey, liquid DHFR-PCA, prey _1 = lost, _2 = gained in screen
How it was run: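 Growth at 30 °C was tracked by OD each 15 min over 72 h in agar-free PCA selection medium, starting at 0.1 OD. Cells were diploids selected after mating, first cultured 48 h with NAT and HPH in synthetic complete MSG medium, pH 6.0.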

B1: YKL051W_1 (protein, UniProt P35735 1-353, looked up)
Protein SFK1: MIQFKSPGNWLFIVPWIAFIPWYGMLIAMLICWASQGHPIYWFMHSEQFPVYISDIGATNLRPLFISCAGWQGLGYVITVALEFFQRSGYLPFQLKKKDPSISDSTSYAEKLHSGKYLMPPYYTKDERNLIFAAFVLGSIGELALLFSSIFSTALYHRVHIAMVSVFVVFMFLSTCCLIAEYFLMGRHYASVHPLASPHFNPQSSEKSFNQDYNTVDELPWYKWKGHVWNKFTISATLKVIWLTLAVVWAICFGAINDRSKSACFEWLLAFWFGIIFMILSADFYLGGRYRQSRYFNHVESFSGYYKYDKALGLYHSEDVLPSDDNAGVIATETASSNIYNNSSSNESIQVVV
Which “Ratio (Deletedscore / WTscore)” value (bait BEM1-1) does the source give for B1 here?
Its value is 1.076.

What about the “Ratio (Deletedscore / WTscore)” value (bait BEM1-2) of the same molecule?
The value was 0.4799.

What about the “Ratio (Deletedscore / WTscore)” value (bait MYO3) of the same molecule?
The value was 0.5607.

What about the “Ratio (Deletedscore / WTscore)” value (bait MYO5) of the same molecule?
Its value is 0.761.

B2: YCR002C_1 (protein, UniProt P25342 1-322, looked up)
Cell division control protein …: MDPLSSVQPASYVGFDTITNQIEHRLLKKGFQFNIMVVGQSGLGKSTLINTLFASHLIDSATGDDISALPVTKTTEMKISTHTLVEDRVRLNINVIDTPGFGDFIDNSKAWEPIVKYIKEQHSQYLRKELTAQRERFITDTRVHAILYFLQPNGKELSRLDVEALKRLTEIANVIPVIGKSDTLTLDERTEFRELIQNEFEKYNFKIYPYDSEELTDEELELNRSVRSIIPFAVVGSENEIEINGETFRGRKTRWSAINVEDINQCDFVYLREFLIRTHLQDLIETTSYIHYEGFRARQLIALKENANSRSSAHMSSNAIQR
Which “Ratio (Deletedscore / WTscore)” value (bait BEM1-2) does the source give for B2 here?
Its value is 0.5157.

What about the “Ratio (Deletedscore / WTscore)” value (bait BOI1) of the same molecule?
The value was 0.9522.

What about the “Ratio (Deletedscore / WTscore)” value (bait NBP2) of the same molecule?
Its value is 0.7856.

What about the “Ratio (Deletedscore / WTscore)” value (bait RVS167) of the same molecule?
The value was 0.8283.

B3: YDR166C_1 (protein, UniProt P89102 1-971, looked up)
Exocyst complex component SEC5: MDRFQIGDEQLLRFYQLKTINPTHSWAQDSSKLNNEEATSNELGVETSFDILKDFKYGNQISIDKESRAYLNDESLSYIRDPLNGQEMSKELQHLPNDSMRLNYLVNSKQFNVKAFLRDMHKQDSFNDLNNSLDRLDSDIQDQSIHLKQLVGKNFTKYVKIKNKLDQIYKEFDEKTNEKNQCDSPKENQINVESLNKKVDEVIRTTTFKLKPLMDNYQKILNYQATKKFIELNKFYFNLPKSLKRCLTNNDFNEFIIEYSKGLTLRRRFNQSSDASQSLVIKRIWTQIENLLVTYKDLIWNSLINSNFNIDQPQETILSLFSKLLNLENFINNNQRESESGNKNTTSSSNENPILRWMSIKMNGFQNELNELSGHMISKIIHSQRLILQNNTNQDKSQGCVELSYYLKINQLFQIISDTGKDSEGLKSTVEPNKVNTISGTSYLNLNCQPSSQGLTDSPTIIEMWLLILKYINDLWKICDQFIEFWEHIEKFLDGTYQNSIINEKRKENILIGDSNIIESYQKSLILKEEQINEVRLKGEEFITSVSQNLISFFTSSQSSLPSSLKDSTGDITRSNKDSGSPLDYGFIPPNCNGLSCLRYLPKIVEPILKFSTELAQLNITTNGITICRNTLSTIINRCVGAISSTKLRDISNFYQLENWQVYETVTFSSKSQDSSKNLTFEYGVTQFPEIVTSFQEVSIKTTRDLLFAYEKLPIINGISVVSYPSKQLLTGIEIQQIISMEAVLEAILKNAAKDKDNPRNSHTILTLTNLQYFRECAFPNILQYFDDAFEWNLASKNLELFSLLSKMESSIFGNYLSDLKINLRDTLEEKFHEINWPMYTSNSFRVGDYIIEALMILIVVHSECFRIGPQLIHKILIETQIFIARYLFEAFKPYVGNLSNDGSLQIIVDLEFFQKVMGPLLEKDTEATLRACLQNCFQNDTNRLQKCINEINPIVSANLKRTAIQFAAFS
Which results are given for B3?
Ratio (Deletedscore / WTscore) (bait BEM1-2): 0.5345; Ratio (Deletedscore / WTscore) (bait BOI2): 0.7084

B4: YER114C_1 (protein, UniProt P39969 1-1040, looked up)
BEM1-interacting protein 2: MSNDREVPTLSQLNTTVSRDKDVSDTLSPDFDSKGSATGRDGGNFPMYIAINEYFKRMEDELDMKPGDKIKVITDDEEYKDGWYFGRNLRTNEEGLYPVVFTQKITVEKAPTLMRAKSTKRIYSPLTNEDPLLSSTFISENDSNSELPTPQPIETAASISRTANGKIERNLSLKNTMSDIDNALLEFKDDSIGPPDRFINSGRDEEHSITHETILSATDGLDVVESNSKPTTSSSTGFLNGDLENQATLINGIDTTKLNPVEAEFWSPEEITAYFIMEGYDVQSASRFQKHKISGKILLELELVHLKELDINSFGTRFEIFKEIEKIKEAIRTNGRSLNRASKTNNANIYNQLMPPANVDQRASYRGHVRKTSQSLEDLPSQQNFIPTPRNTRNSSASKHRPKSLVFDSQEANANIAPDVQIPQVVEEMAGNENLFVSPRRAPKPPSYPSPAQPPKSPLLNNTRTSPSPAQLYSWQSPTLSFSGPKRTSYIDQYSSSDSNFNSRSALPKNNQGGGKALSPIPSPTRNSVRNEDSEGKLTSSSKRNSVPYYGYAPESSSDRKSSCSSHEEEQFQETMNTFERPTSSIYADGSTIASISNDKLAHEKEGKKKPTRHSSSLSSKSKSDSRRNSSLKRSSSASRTSSFKKSSFMLSPFRQQFTDNAARSSSPEENPITSMPSEKNSSPIVDKKSSKKSRSKRRSVSAKEAEIFTETVKDDKNKRSASEAIKGETLKGKSLRQMTARPVAKKKQTSAFIEGLRSISVKEAMKDADFSGWMSKKGSGAMSTWKTRFFTLHGTRLSYFSSTTDTRERGLIDITAHRVVPAKEDDKLVSLYAASTGKGRYCFKLLPPQPGSKKGLTFTQPRTHYFAVDNKEEMRGWMAALIKTTIDIDTSVPIISSYTTPTVSLSKAQEMLAEAREETKLREQQMLENEEDEDQFLWDQQQLQQQQHDNNQGQADRTISASTQRTSDEDNTISTPNLSSANNTTIGSNGFSSPFLLASGLLSPGVARNSSMRGTEKKGKFSTEEDYFGDNSKHKTDKI
B4 was tested. Which “Ratio (Deletedscore / WTscore)” value (bait BEM1-2) did it give?
The value was 0.3794.

B5: YMR109W_1 (protein, UniProt Q04439 1-1219, looked up)
Myosin-5: MAILKRGARKKVHQEPAKRSANIKKATFDSSKKKEVGVSDLTLLSKISDEAINENLKKRFLNATIYTYIGHVLISVNPFRDLGIYTDAVMNEYKGKNRLEVPPHVFAIAESMYYNMKSYNENQCVIISGESGAGKTEAAKRIMQYIAAASSTHTESIGKIKDMVLATNPLLESFGCAKTLRNNNSSRHGKYLEIKFNNQFEPCAGNITNYLLEKQRVVSQIKNERNFHIFYQFTKGASDAYRQTFGVQKPEQYVYTAAAGCISAETIDDLQDYQETLKAMRVIGLGQEEQDQIFRMLAAILWIGNVSFIENEEGNAQVRDTSVTDFVAYLLQIDSQLLIKSLVERIMETNHGMKRGSVYHVPLNIVQADAVRDALAKAIYNNLFDWIVSRVNKSLQAFPGAEKSIGILDIYGFEIFEHNSFEQICINYVNEKLQQIFIQLTLKSEQETYEREKIQWTPIKYFDNKVVCDLIEARRPPGIFAAMNDSVATAHADSNAADQAFAQRLNLFTTNPHFDLRSNKFVIKHYAGDVTYDIDGITDKNKDQLQKDLVELIGTTTNTFLATIFPDTVDRESKRRPPTAGDKIIKSANDLVETLSKAQPSYIRTIKPNETKSPNDYDDRQVLHQIKYLGLQENVRIRRAGFAYRQVFEKFVERFYLLSPHCSYAGDYTWQGDTLDAVKYILQDSSIPQQEYQLGVTSVFIKTPETLFALEHMRDRYWHNMAARIQRAWRRFLQRRIDAATKIQRTIRERKEGNKYEKLRDYGTKVLGGRKERRSMSLLGYRAFMGDYLSCNESKSKGAYIKRQVSIKEKVIFSIHGEALHTKFGRSAQRLKKTFLLTPTTLYIVGQTLVQNAMTYTQDYKIDVRNIQAVSLTNLQDDWVAIKLASSGQPDPLINTYFKTELITHLKRLNDKIQIKIGSAIEYQKKPGKLHSVKCQINESAPKYGDIYKSSTISVRRGNPPNSQVHKKPRKKSSISSGYHASSSQATRRPVSIAAAQHVPTAPASRHSKKPAPPPPGMQNKAATRRSVPNPASTLTASQSNARPSPPTAATRATPAATPAAAAMGSGRQANIPPPPPPPPPSSKPKEPMFEAAYDFPGSGSPSELPLKKGDVIYITREEPSGWSLGKLLDGSKEGWVPTAYMKPHSGNNNIPTPPQNRDVPKPVLNSVQHDNTSANVIPAAAQASLGDGLANALAARANKMRLESDDEEANEDEEEDDW
Which results are given for B5?
Ratio (Deletedscore / WTscore) (bait BEM1-1): 0.9175; Ratio (Deletedscore / WTscore) (bait BEM1-2): 0.7054; Ratio (Deletedscore / WTscore) (bait BOI2): 0.9032; Ratio (Deletedscore / WTscore) (bait HSE1): 0.9954; Ratio (Deletedscore / WTscore) (bait NBP2): 0.9518; Ratio (Deletedscore / WTscore) (bait PIN3): 0.6702

B6: YJL151C_2 (protein, UniProt P14359 1-133, looked up)
Protein SNA3: MDRDHINDHDHRMSYSINKDDLLLMVLAVFIPPVAVWKRKGMFNRDTLLNLLLFLLLFFPAIIHACYVVYETSSERSYDLSRRHATAPAVDRDLEAHPAEESQAQPPAYDEDDEAGADVPLMDNKQQLSSGRT
With B6 as the molecule, how does the “Ratio (Deletedscore / WTscore)” value (bait ABP1) read?
Its value is 1.204.

What about the “Ratio (Deletedscore / WTscore)” value (bait BZZ1-2) of the same molecule?
The value was 1.485.

B7: YHR064C_1 (protein, UniProt P38788 1-538, looked up)
Ribosome-associated complex …: MSSPVIGITFGNTSSSIAYINPKNDVDVIANPDGERAIPSALSYVGEDEYHGGQALQQLIRNPKNTIINFRDFIGLPFDKCDVSKCANGAPAVEVDGKVGFVISRGEGKEEKLTVDEVVSRHLNRLKLAAEDYIGSAVKEAVLTVPTNFSEEQKTALKASAAKIGLQIVQFINEPSAALLAHAEQFPFEKDVNVVVADFGGIRSDAAVIAVRNGIFTILATAHDLSLGGDNLDTELVEYFASEFQKKYQANPRKNARSLAKLKANSSITKKTLSNATSATISIDSLADGFDYHASINRMRYELVANKVFAQFSSFVDSVIAKAELDPLDIDAVLLTGGVSFTPKLTTNLEYTLPESVEILGPQNKNASNNPNELAASGAALQARLISDYDADELAEALQPVIVNTPHLKKPIGLIGAKGEFHPVLLAETSFPVQKKLTLKQAKGDFLIGVYEGDHHIEEKTLEPIPKEENAEEDDESEWSDDEPEVVREKLYTLGTKLMELGIKNANGVEIIFNINKDGALRVTARDLKTGNAVKGEL
How did the “Ratio (Deletedscore / WTscore)” value (bait BEM1-1) turn out when B7 was run?
Its value is 0.9929.

What about the “Ratio (Deletedscore / WTscore)” value (bait BUD14) of the same molecule?
Its value is 0.7471.
